Test results from paper PMC4775219 (eLife, 2016).

Target: T1, Full-length H-Ras (SNAPtag-(GAGS)2x-MBP-H-Ras-DoubleHisTag) (human, UniProt P01112 1-189, SNAP-Cell 430 dye on the SNAP-tag)
T1 construct: H-Ras GTPase, human, full length; loaded with GDP or GTP as the experiment says; Held on Ni beads by the C-terminal double His tag; The nucleotide state (GDP or GTP) is a condition of the assay; also called wild-type Ras; WT Ras; source: E. coli BL21(T1R), purified (Ni-NTA, amylose, gel filtration Superdex S200); not shown: SNAP-tag, N-terminal, kept; DoubleHisTag (10xHis-(GAGS)3x-6xHis), …
Assay: recruitment of fluorescent effector to Ras-loaded beads, spinning disk confocal microscopy; two competing effectors, each with its own fluorophore, in equivalent amounts on the same Ras-loaded beads; 2 uM RasGRF GEF step input, 5 mM GTP; GAP-free or with NF1-GAP
Details: both partners purified

output amplitude, fold lower than C-Raf RBD (GAP-free two-effector network): 20 times lower
B1: RBD from the A-Raf kinase (SNAPtag-(GAGS)2x-MBP-ARafRBD-StrepII) (domain or fragment, UniProt P10398 19-91, looked up)
chain: GTVKVYLPNKQRTVVTVRDGMSVYDSLDKALKVRGLNQDCCVVYRLIKGRKTVTAWDTAIAPLDGEELIVEVL
modifications: SNAP-Surface 488 or SNAP-Surface 549 dye on the SNAP-tag
notes: source: E. coli BL21(T1R), purified (Streptactin, amylose, gel filtration Superdex S75); not shown: SNAP-tag, N-terminal, kept
